# Laboratory results taken from the supplement of paper PMC10724198.
# ± gives the standard deviation of the averaged measurements.
# Tested on: Saccharomyces cerevisiae
# Experiment: protein stability index of tFT-peptide fusion (C-terminal peptide) (PSI (0-1 scale)); higher = more stable (slower turnover)
# Settings: genetic background: wild type; temperature: 30 C
# Description: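 Multiplexed protein stability (MPS) profiling in S. cerevisiae. Random 12-aa peptides (tFT-X12 library) are fused to the C-terminus of a sfGFP-mCherry tandem fluorescent timer, after mCherry and a GGGS linker. Cells are FACS-sorted into 8 mCherry/sfGFP bins and deep-sequenced. The protein stability index (PSI) is the read-weighted bin average, scaled from 0 (unstable) to 1 (stable). Only peptides with >10 reads are reported; cells were grown at 30 °C in SC-His with glucose.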
# 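Also: PSI is a weighted mean of sequencing reads over stability bins, variants kept only with over 10 reads, mCherry proximal and sfGFP distal, peptide attached via GGGS linker.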
row,Sequence,protein stability index
1,TTCLYYDLQIPM,0.672 ± 0.015
2,RGPGKKQIISQK,0.741 ± 0.02
3,RGVETGRGREKE,0.643 ± 0.046
4,AFRISLSCPISL,0.619 ± 0.056
5,VRPYPGDDVSWR,0.693 ± 0.061
6,LSTCRYMLRLAY,0.5233 ± 0.0021
7,PRPPPPRPPFST,0.717 ± 0.01
8,GLLTFPPNRSGG,0.67 ± 0.05
9,LLSVVLPDSSLP,0.738 ± 0.065
10,GVGGFGFGWSMV,0.725 ± 0.057
11,CGLMIFSRSYRF,0.704 ± 0.033
12,RKEEEGNYWNRI,0.651 ± 0.02
13,VWHWGRSLYLAA,0.525 ± 0.021
14,HRPSPSPSPPLP,0.752 ± 0.056
15,FPFGICMISCDG,0.628 ± 0.02
16,LPCPSFPSLPFL,0.646 ± 0.1
17,PSPDPCPLGRTA,0.629 ± 0.067
18,PVWVDRGVLWSV,0.716 ± 0.094
19,PISCVLGFAFPS,0.708 ± 0.1
20,CGCCTSSPFVSQ,0.687 ± 0.061
21,SIMSVLPYCSCS,0.708 ± 0.06
22,VFHLATSVRRRY,0.672 ± 0.051
23,SGMGGCRKGFEG,0.717 ± 0.011
24,YINTKKKKINKT,0.655 ± 0.014
25,RSSPAVPPSPRP,0.6918 ± 0.0066

row,Sequence,protein stability index
1,LDVGYVLGLERS,0.681 ± 0.033
2,IVLHLAASPTPP,0.65 ± 0.015
3,LRPPPPPAQPFV,0.69 ± 0.033
4,PPVPPPSPPRLL,0.673 ± 0.03
5,CQVDGTMLCSEC,0.652 ± 0.02
6,SPASIVPTLELA,0.638 ± 0.024
7,SLASCLLRPPLY,0.693 ± 0.021
8,TLWLVSTAVLDC,0.534 ± 0.036
9,AESLGLNYGSVY,0.657 ± 0.05
10,GVSGGFVGSSGG,0.62 ± 0.024
11,PLPLPAPPPPSP,0.663 ± 0.01
12,LFGHMENNLLKS,0.722 ± 0.046
13,CTAPIASWKRVL,0.694 ± 0.029
14,IRVADLNSSSFC,0.888 ± 0.16
15,FRLLLFPLPLSP,0.494 ± 0.011
16,SGLFPLSPKPCP,0.619 ± 0.11
17,STLSSRLSLPYR,0.728 ± 0.07
18,HLFNLVRIRTDL,0.703 ± 0.049
19,GLVHGSWGCQCD,0.714 ± 0.015
20,DALGRSTKGGHW,0.689 ± 0.024
21,GGGGRVRDALGM,0.696 ± 0.048
22,PSVLPSSCTPSP,0.663 ± 0.03
23,PPFVPGEVRRTV,0.6867 ± 0.0036
24,HEGAISLCRQTC,0.592 ± 0.058
25,GAEKGSVPGGDK,0.654 ± 0.05

row,Sequence,protein stability index
1,ESRGVRAGTWQG,0.694 ± 0.05
2,SPSTSPPPSSSS,0.697 ± 0.042
3,PGLAGGASQEGR,0.58 ± 0.085
4,HDDQIRASQNKL,0.747 ± 0.026
5,VGRSAAGRLELI,0.679 ± 0.014
6,DPRHDNRYPRVR,0.617 ± 0.16
7,LSCSLSWFFSSV,0.679 ± 0.083
8,LVGLGGCLVGLR,0.6277 ± 0.0027
9,FPPTALESMPSS,0.737 ± 0.042
10,NLGFTTSWSFDL,0.766 ± 0.066
11,DKPVDTRPGSPG,0.66 ± 0.031
12,SSEECYDTKGEL,0.674 ± 0.027
13,PCSPRLPPFPSP,0.683 ± 0.017
14,NINNKRNHIHLK,0.648 ± 0.075
15,PRLCLVAGRCRS,0.614 ± 0.04
16,FSYPPSLVPFCS,0.702 ± 0.019
17,VTISLGGGGGMQ,0.684 ± 0.12
18,LLCSSFSFHCFP,0.667 ± 0.0068
19,ALLPVLPSRPAP,0.7431 ± 0.0046
20,SIGYDLFTKDKI,0.789 ± 0.13
21,PPSTNRDGRKRT,0.644 ± 0.026
22,CSFHPSSVSLYS,0.555 ± 0.027
23,YGVLEYLRDLVF,0.689 ± 0.016
24,HLSLFHIALPPP,0.6888 ± 0.0053
25,SVLFDIGFSCRF,0.808 ± 0.026

row,Sequence,protein stability index
1,EVLTSRWCGLIS,0.744 ± 0.074
2,LGGGARGSGGGA,0.727 ± 0.028
3,CVIESIEQCLSR,0.716 ± 0.045
4,VSAYLKNSGYRE,0.6955 ± 0.0061
5,GGFRWLGGSAPA,0.727 ± 0.072
6,AERKTKASRRKE,0.654 ± 0.019
7,CLLYPPYHFYIH,0.567 ± 0.0066
8,VYYDERLGDGHS,0.866 ± 0.021
9,PLLAPVPLTLTP,0.722 ± 0.022
10,QKRKKQNKDGGT,0.716 ± 0.042
11,WSGQWCRGRAGG,0.706 ± 0.018
12,PPPSPTSPPPPS,0.69 ± 0.018
13,DSSFLPHLRLAP,0.689 ± 0.053
14,LVSLPISFPASL,0.692 ± 0.035
15,SILTALGEVLLV,0.665 ± 0.013
16,GKSREKEKESRE,0.658 ± 0.032
17,PHTHHLPPPNCP,0.679 ± 0.04
18,RTASRSVSTTQN,0.745 ± 0.024
19,VPPGVVSSPCPN,0.661 ± 0.056
20,KARMTDQLKSTS,0.672 ± 0.045
21,REEMASGGCIIR,0.6845 ± 0.0039
22,VCAGGVFRLARG,0.66 ± 0.12
23,SFATPCCYPLHF,0.713 ± 0.037
24,SPPRPSSPRASP,0.664 ± 0.074
25,YCVMEVAGLEWE,0.69 ± 0.038

row,Sequence,protein stability index
1,QIKPSLGLDKPS,0.683 ± 0.061
2,FWHERVSSTVKR,0.731 ± 0.025
3,FRVKVFGLPFWL,0.509 ± 0.028
4,RTGRTCADRPTP,0.757 ± 0.043
5,GFALRESWFIFV,0.644 ± 0.018
6,GVGREGEIGGGG,0.544 ± 0.037
7,SVFSVVLSLSGS,0.706 ± 0.051
8,DSAVTPPTTCLP,0.719 ± 0.028
9,KNKFSTWDNEVN,0.718 ± 0.041
10,IIDKQENNLKSE,0.7513 ± 0.0011
11,HSAPDLPPLPRV,0.711 ± 0.02
12,MVGLTTEFGSDG,0.667 ± 0.015
13,SGVGCLVFGRGF,0.645 ± 0.046
14,WQIDVWDSNCVM,0.692 ± 0.027
15,VGAGVAGGASVS,0.613 ± 0.027
16,CCSIVRSGAGDK,0.748 ± 0.012
17,PPLLPPPPAFVF,0.668 ± 0.0069
18,DQIYEKQKIPST,0.621 ± 0.0079
19,VGGRLLFVGKRG,0.669 ± 0.051
20,AVVVWGGGWWWA,0.78 ± 0.15
21,VAAFGGGPTNGV,0.724 ± 0.013
22,GGAGGRRRIGGG,0.622 ± 0.048
23,ITIPICTTFHHV,0.731 ± 0.029
24,LPASWSRVSFAG,0.6825 ± 0.0034
25,KTRPVCKVSCKL,0.77 ± 0.092

row,Sequence,protein stability index
1,WWGWGGVACLLL,0.693 ± 0.059
2,GFCLIVGVVPAL,0.5179 ± 0.0024
3,RRAPASAFPHSP,0.688 ± 0.06
4,PTSPPPPLPPPS,0.7066 ± 0.0036
5,LPRPPPPPALPT,0.66 ± 0.087
6,GGPIQAGLSFPG,0.685 ± 0.025
7,RTGVTKYSETLI,0.677 ± 0.091
8,KKKKKQKEKKQK,0.72 ± 0.0083
9,LLRLPCHLSQAS,0.68 ± 0.035
10,VFLVDCFGVCFL,0.784 ± 0.048
11,EFFSFPLTPYAL,0.818 ± 0.0035
12,HLLRSDPAWFSG,0.705 ± 0.009
13,GYPPDPSPPRLL,0.724 ± 0.015
14,PPPIPGDPTPCP,0.667 ± 0.021
15,ICWSTALDASFG,0.725 ± 0.024
16,SYESKPPLSWDS,0.73 ± 0.11
17,SSDSYANLNWVI,0.741 ± 0.038
18,PSAPRHLIPPPI,0.715 ± 0.07
19,HAQTNSNSQLLL,0.677 ± 0.0076
20,MSSGGSIYMVRT,0.723 ± 0.018
21,VSFSSLLRFCRG,0.671 ± 0.0091
22,VGHGGRRGVGGW,0.612 ± 0.057
23,NDGLRRLICGGT,0.68 ± 0.022
24,GSLLSEERGRYW,0.75 ± 0.026
25,QLSLSTPAGRLI,0.6886 ± 0.0068

row,Sequence,protein stability index
1,GVRRVAVLYLLY,0.527 ± 0.041
2,YKGRYDCRVGGR,0.682 ± 0.0096
3,LILLTIQSQPPV,0.622 ± 0.0018
4,NTTCGVEQKEDK,0.649 ± 0.014
5,SPSYACLPPPIP,0.7461 ± 0.0032
6,MGAAWNYANFGL,0.7011 ± 0.0059
7,WTPGTPVFSKGI,0.714 ± 0.035
8,KKKKGNKKRREK,0.731 ± 0.0083
9,PRSPPPLPPSSL,0.705 ± 0.029
10,LPPPPLPQAPPT,0.702 ± 0.075
11,APGPPLLLPPPL,0.697 ± 0.1
12,LRETDGSGQYVR,0.686 ± 0.014
13,LPLLRWASPRGF,0.685 ± 0.0042
14,AKTQGLLMVTLQ,0.712 ± 0.12
15,FYSLFLPRPFLS,0.579 ± 0.024
16,RGFKEPLSFKAG,0.613 ± 0.059
17,PSPPPVLLPFFT,0.711 ± 0.08
18,GARERRRRRRRP,0.713 ± 0.025
19,AGPATSSSPPVS,0.688 ± 0.032
20,LGFNRRSKTRMI,0.704 ± 0.014
21,LGPPPPPASVCR,0.647 ± 0.012
22,PPPSPRSAPAAS,0.711 ± 0.1
23,VSLSSLPRRFSP,0.75 ± 0.04
24,HETRGKTEQNWM,0.645 ± 0.053
25,HFSDLIRFFFFA,0.579 ± 0.064

row,Sequence,protein stability index
1,LQHRHSTSPRPT,0.657 ± 0.037
2,QIVDHCLVWLRG,0.628 ± 0.0066
3,SGWRCSVAVLQV,0.592 ± 0.033
4,MGLVVGILVGHR,0.647 ± 0.098
5,PPLLPLSPRPPA,0.704 ± 0.089
6,PPPPHPPRPPRP,0.676 ± 0.0074
7,QFTSGCPAYLLK,0.678 ± 0.0079
8,PKEQTHKKQHNI,0.56 ± 0.039
9,EIRGGDMGEWRE,0.715 ± 0.027
10,AYWWSLGRALGC,0.745 ± 0.065
11,CWVRGLEYCSIW,0.676 ± 0.028
12,TSRTLKPGIPPA,0.7033 ± 0.0013
13,QVVLCCAIDKNT,0.708 ± 0.082
14,PPPPPPPPPRSS,0.718 ± 0.021
15,SSSVLPESFSPS,0.687 ± 0.036
16,KKKETKKENKKK,0.723 ± 0.034
17,RTRRPSRTRSAS,0.772 ± 0.072
18,HRPPATPADPCS,0.684 ± 0.019
19,WSRSGGGEKYGV,0.69 ± 0.0094
20,FMYRDVPFLRAP,0.697 ± 0.03
21,RVSIDIMNALGR,0.627 ± 0.033
